Substitutions are numbered along the chain they refer to.
B1: antibody 1.7 (antibody, V domains shown)
VH: QVTLKESGPVLVKPTETLTLTCTVSGFSLSNARMSVSWIRQPPGKALEWLAHIFSNDEKSYSTSLKSRLTISKDTSKSQVVLTMTNMDPVDTATYYCARIRGTVGFDYWGQGTLVTVSS
VL: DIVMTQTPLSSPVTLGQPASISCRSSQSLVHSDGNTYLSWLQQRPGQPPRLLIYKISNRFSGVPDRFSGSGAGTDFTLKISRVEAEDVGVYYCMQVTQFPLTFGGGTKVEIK
notes: Human antibody from a Xenomouse hybridoma (IgG1 or IgG4 strains); also called Ab 1.7; human antibody 1.7
B2: antibody 1.2 (antibody, human IgG1, kappa, V domains shown)
VH: QVTLKESGPVLLKPTETLTLTCTVSGFSLSNARMGVSWIRQPPGKALEWLAHIFSNDEKSYITSLKSRLTISKDTSKSQVVLTMTNMDPVDTATYYCARIPLRSPGAFDIWGQGTMVTVSS
VL: DIVMTQTPLSSPVTLGQPASISCRSSQSLVHSDGNTYLNWLQQRPGQPPRLLIYKISNRFSGVPDRFTGSGAGTDFTLKISRVEAEDVGVYTCMQVTQFPLTFGQGTRLEIKR
notes: also called Ab 1.2; human antibody 1.2
B3: antibody 1.1 (antibody, human IgG1, kappa, V domains shown)
VH: B1 VH with F106Y
VL: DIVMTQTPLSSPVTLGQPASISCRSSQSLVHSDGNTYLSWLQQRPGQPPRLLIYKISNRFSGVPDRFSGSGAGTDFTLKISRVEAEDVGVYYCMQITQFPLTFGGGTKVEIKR
notes: also called Ab 1.1; human antibody 1.1
B4: antibody 1.9 (antibody, human IgG1, kappa, V domains shown)
VH: B2 VH with L12V, I62S, S76F
VL: B2 VL with D1E, G34R, N39S, T68S, T92Y, V96T, F99L, T107A
notes: also called Ab 1.9; human antibody 1.9
B5: antibody 7.2 (antibody, V domains shown)
VH: QVQLVESGGGVVQPGRSLRLSCAASGFTFSSYGMHWVRQAPGKGLEWVAVIWYDGSNKYYADSVKGRFTISRDISKNTLYLQMNSLRAEDTAVYYCARSGPPLYSGIYYYYGMDVWGQGTTVTVSS
VL: SSELTQDPAVSVALGQTVRITCQGDSLRAYYAHWYQQKPGQAPVLVIYGKNNRPSGIPDRFSGSNSGNTASLTITGAQAEDEADYYCNSRDSSGNHVVFGGGTKLTVL
notes: Human anti-Aβ antibody; also called Ab 7.2
B6: antibody 6.27 (antibody, V domains shown)
VH: QVQLQESGPGLVKPSKTLSLTCTVSGGSISSYYWSWIRQPAGKGLEWIGRIYTSGSTNLNPSLKSRVTMSIDTSKSQFSLKLSSVTAADTAVYYCARLELRNYYYGMDVWGQGTTVTVSS
VL: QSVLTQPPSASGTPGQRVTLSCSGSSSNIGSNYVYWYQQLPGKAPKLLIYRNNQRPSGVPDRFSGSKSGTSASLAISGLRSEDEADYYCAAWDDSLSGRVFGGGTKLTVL
notes: Human anti-Aβ antibody; also called Ab 6.27
B7: antibody 7.28 (antibody, V domains shown)
VH: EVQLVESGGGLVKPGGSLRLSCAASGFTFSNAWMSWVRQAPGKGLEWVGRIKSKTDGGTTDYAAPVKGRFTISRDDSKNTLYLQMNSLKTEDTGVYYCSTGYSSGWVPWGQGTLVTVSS
VL: QSVLTQPPSVSAAPGQKVTISCSGSSSNIGNNYVFWYQQLPGTAPKLLIYDNNKRPSGIPDRFSGSKSGTSATLGITGLQTGDEADYYCGTWDSSLSAGVFGGGTKVTAL
notes: Human anti-Aβ antibody; also called Ab 7.28
B8: antibody 7.11 (antibody, V domains shown)
VH: QLQLQESGPGLVKPSETLSLTCTVSGGSISSSRYYWGWIRQPPGKGLEWIGSISYRGNTYYYPSLKSRVTISVDTSKNQFSLKLNSVTAADTAVYYCARRTYSSGWSYFDYWGQGTLVTVSS
VL: SYELTQPYSMSVATAQMARITCGGNNIGSKAVHWYQQKPGQDPVLVIYSDSNRPSGIPERFSGSNPGNTATLTISRIEAGDEANYYCQVWDSSSDHWVFGGGTKLTVL
notes: Human anti-Aβ antibody; also called Ab 7.11
B9: antibody 1.14 (antibody, V domains shown)
VH: EVQLVESGGGLVQPGGSLRLSCAASGFTFSSYSMNWVRQAPGKGLEWVSYISRSSSAIYYADSVKGRFTISRDNAKNSLYLQMNSLRDEDTAVYYCARETTVTTRFYYYYYGVDVWGQGTTVTVSS
VL: DIQMTQSPSSVSASVGDRVTITCRASQGISSWLAWFQQKPGKAPKLLIYAASSLQSGVPSRFSGSGSGTDFTLTISSLQPEDFATYYCQQANSFPRTFGQGTKVEIK
notes: Human anti-Aβ antibody
B10: antibody 6.18 (antibody, V domains shown)
VH: B9 VH with V48L, R53S, S54R, A57T, T100R, V102G, F106Y, V113M
VL: B9 VL with F36S
notes: Human anti-Aβ antibody; also called Ab 6.18
B11: antibody 1.15 (antibody, V domains shown)
VH: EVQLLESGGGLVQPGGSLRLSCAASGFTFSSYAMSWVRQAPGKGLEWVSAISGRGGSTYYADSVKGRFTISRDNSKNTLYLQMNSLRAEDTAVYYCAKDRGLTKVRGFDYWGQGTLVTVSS
VL: DVVMTQSPFSLPVTLGQPASISCRSSQSLVYSDGNTSLNWFQQRPGQSPRRLIYKVSKWDSGVPDRFSGSGSGTDFTLKISRVEAEDVGVYYCMQGTHWPRGFTFGPGTKVDIK
notes: Human anti-Aβ antibody

target: amyloid plaques in unfixed Tg2576 mouse brain sections (human, UniProt P05067 672-713, limits assumed); assay: cell-based or functional assay
Sequence (P05067 672-713 limits assumed, form in doubt): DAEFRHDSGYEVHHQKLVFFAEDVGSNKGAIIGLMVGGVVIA

Row | Binder | EC50 of ex vivo phagocytosis [µg/mL]
1 | B1 | 2

target: T1, Aβ42 oligomers (human); assay: immunoprecipitation / Western blot
T1 construct: Soluble oligomers prepared from Aβ42 peptide in Ham's F-12; dimer, trimer and tetramer were seen on the blot; also called soluble, oligomeric species of Aβ42; Aβ42 dimer, trimer, and tetramer
T1 sequence (peptide, as listed by the source): as the sequence (P05067 672-713 limits assumed, form in doubt) above

Row | Binder | binding result
2 | B1 | binds
3 | B2 | binds

target: T2, human Aβ40 fibrils (human); assay: ELISA, fibrils dried on plate, europium TRF
T2 construct: Fibrillar aggregate of the 40-residue peptide prepared in vitro; also called Fibrillar Aβ40; Aβ40 amyloid fibrils
T2 sequence (peptide, as listed by the source): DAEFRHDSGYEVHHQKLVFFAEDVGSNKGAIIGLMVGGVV
Experimental: (§1) The fibrils (Aβ or collagen) were diluted to 10 μg/ml in water and mixed thoroughly. The solution was aliquoted into the wells of a microtiter plate (Immulon-2; VWR; Cat # 62404-972) at 50 μl per well (resulting in 0.5 μg fibrils/well final). The plate was dried overnight by being placed uncovered in a 37° C. incubator.
(§2) The wells were blocked with 200 μl of blocking solution and incubated for ≧1 hour at room temperature (RT) with shaking. The blocking solution was flicked out and gently dried on a paper towel. 100 μl of primary antibody diluted in PBS containing 10% blocking solution was added to each well and the plate was incubated at RT for 1 hour with shaking. The plate was washed with 5-10× in TBS, pH 7.5+0.05% Tween 20. 100 μl of secondary antibodies (each diluted 1-2,000-fold in PBS) was added to each well and the plate was incubate at RT for 1 hour with shaking. The plate was washed with 5-10× in TBS, pH 7.5+0.05% Tween 20. 100 μl Streptavidin-Europium reagent (1-1,000-fold dilution) was added (100 μL/well) and the plate was incubated at room temperature for 45 minutes with shaking. The plate was washed 5-10× in TBS, pH 7.5+0.05% Tween 20. 120 μl Enhance Solution was added and the plate was incubated at room temperature for 15-30 minutes with shaking. The plate was read on a Victor TRF plate reader (Europium program).

Row | Binder | EC50 [pM]
4 | B1 | 90
5 | B3 | 133
6 | B2 | 115
7 | B4 | 195

target: T3, human Aβ42 fibrils (human); assay: ELISA, fibrils dried on plate, europium TRF
T3 construct: Fibrillar aggregate of the 42-residue peptide prepared in vitro; also called Fibrillar Aβ42; Aβ42 amyloid fibrils
T3 sequence (peptide, as listed by the source): as the sequence (P05067 672-713 limits assumed, form in doubt) above
Experimental: as §1, §2

Row | Binder | EC50 [pM]
8 | B1 | 71
9 | B3 | 82
10 | B2 | 86
11 | B4 | 96

target: T4, human Aβ40 monomer (human); assay: ELISA, monomer coated on plate, europium TRF
T4 construct: also called soluble Aβ40
Experimental: (§3) The same techniques were used for the coating of the microtiter plate for monomer ELISA. The fibrils Aβ monomer were diluted to 2.5 μg/ml in Coating buffer and mixed thoroughly. The solution was aliquoted into the wells of a microtiter plate [Immulon-2; VWR; Cat.# 62404-972] at 100 μl per well. The plate was sealed and incubated overnight at 4° C. The plate was washed 5-10× to remove Aβ coating solution prior to starting the assay.
as §2

Row | Binder | EC50 [pM]
12 | B1 | 615
13 | B3 | 54
14 | B2 | 689
15 | B4 | 42

target: T5, human Aβ42 monomer (human); assay: ELISA, monomer coated on plate, europium TRF
T5 construct: also called soluble Aβ42; monomeric Aβ42
T5 sequence (peptide, as listed by the source): as the sequence (P05067 672-713 limits assumed, form in doubt) above
Experimental: as §3, §2

Row | Binder | EC50 [pM]
16 | B1 | 52
17 | B3 | 45
18 | B2 | 56
19 | B4 | 37

target: T2, human Aβ40 fibrils; assay: BIAcore, fibrils immobilized, antibody injected
Experimental: (§4) Preparation of Biacore Chip Surfaces: Immobilization of Proteins to a BIAcore sensor chip (CM5) was performed according to manufacturer's instructions. Briefly, carboxyl groups on the sensor chip surfaces were activated by injecting 60 μL of a mixture containing 0.2 M N-ethyl-N′-(dimethylaminopropyl) carbodiimide (EDC) and 0.05 M N-hydroxysuccinimide (NHS). Specific surfaces were obtained by injecting rProtein G (Pierce), goat anti-mouse Fc (Jackson Immuno Research Lab) or Aβ aggregates diluted in 10 mM acetate, pH 4.0 at concentrations between 5 and 20 μg/mL. Excess reactive groups on the surfaces were deactivated by injecting 60 μL of 1 M ethanolamine. […] A blank, mock-coupled reference surface was also prepared on the sensor chips for background subtraction.
(§5) Kinetic analysis of antibodies binding to immobilized Aβ fibrils: Avidity measurements to Aβ fibrils were made by immobilizing amyloid fibrils on the sensor chip surface followed by injection of antibody solutions over the surface, and injection of antibody solutions over a blank surface for background subtraction. Antibodies were diluted in PBS+0.005% P-20+0.1 mg/mL BSA at concentrations varying from 100 nM to 0.2 nM.

Row | Binder | koff [s⁻¹]
20 | B5 | 0.00014
21 | B6 | 0.005
22 | B7 | 8.2e-05
23 | B8 | 0.0008
24 | B9 | 0.0013
25 | B10 | 0.004
26 | B11 | 0.00096

target: T3, human Aβ42 fibrils; assay: BIAcore, fibrils immobilized, antibody injected
Experimental: as §4, §5

Row | Binder | koff [s⁻¹]
27 | B5 | 0.00029
28 | B6 | 0.0021
29 | B7 | 0.00021
30 | B8 | 0.00049
31 | B9 | 0.00087
32 | B10 | 0.0026
33 | B11 | 0.0011

target: T2, human Aβ40 fibrils; assay: BIAcore, fibrils immobilized, antibody injected (avidity)
Experimental: as §4, §5

Row | Binder | Kd [pM] | koff [s⁻¹] | kon [M⁻¹ s⁻¹]
34 | B1 | 100 | 0.00042 | 3.8e+06
35 | B3 | 20 | 8.1e-05 | 4.2e+06
36 | B2 | 60 | 0.00017 | 2.9e+06
37 | B4 | 30 | 0.00017 | 5.3e+06

target: T3, human Aβ42 fibrils; assay: as above
Experimental: as §4, §5

Row | Binder | Kd [pM] | koff [s⁻¹] | kon [M⁻¹ s⁻¹]
38 | B1 | 2900 | 0.0005 | 170000
39 | B3 | 800 | 0.00016 | 200000
40 | B2 | 1700 | 0.00019 | 170000
41 | B4 | 1800 | 0.00019 | 110000

target: T4, human Aβ40 monomer; assay: BIAcore, antibody captured on protein G, Aβ monomer injected
Experimental: as §4
(§6) Kinetic analysis of Aβ monomers binding to protein G captured antibodies: The kinetic analysis of the interaction between Aβ monomers and antibodies was performed as follows: Antibodies to be tested were diluted in PBS+0.005% P-20+0.1 mg/mL BSA and injected over the immobilized protein G Fc surface. Aβ monomers were diluted in PBS+0.005% P-20+0.1 mg/mL BSA from 1000 nM to 2 nM, and each concentration was injected over the captured antibody surfaces.

Row | Binder | Kd [pM] | koff [s⁻¹] | kon [M⁻¹ s⁻¹]
42 | B1 | > 200000 | – | –
43 | B3 | 117000 | 0.015 | 130000
44 | B2 | > 200000 | – | –
45 | B4 | > 200000 | – | –

target: T5, human Aβ42 monomer; assay: as above
Experimental: as §4, §6

Row | Binder | Kd [pM] | koff [s⁻¹] | kon [M⁻¹ s⁻¹]
46 | B1 | > 20000 | – | –
47 | B3 | 16000 | 0.0039 | 240000
48 | B2 | 14000 | 0.0011 | 78000
49 | B4 | 47000 | 0.0029 | 61000

Reference: patent US20110044986A1 (Amgen, published 2011)
